According to PMC5809530, “Resculpting the binding pocket of APC superfamily LeuT-fold amino acid transporters” (Cellular and Molecular Life Sciences: CMLS, 2017):

What was measured:
[1] = substrate: O=C(O)[C@@H]1CCCN1; experiment: cells, lysate or membranes; details: transport Km, Na+-free, pH 5.5, about 22 °C, labelled compound, a second Km was measured by TEVC at -60 mV
[2] = substrate: N[C@@H](CO)C(=O)O; experiment: cells, lysate or membranes; details: transport Km, Na+-free, pH 5.5, about 22 °C, labelled compound, 0.01-20 mM serine

B1: CG1139 (Drosophila melanogaster) (protein)
chain: MNDDIKTVTVYPTTLELTTPTKSANGSNDDYDPHQHRELKNPTTNFQTFAHFLKASVGTGVLAMPSAFAHAGYVNGTLLTLIIGSLALYCLHILIKCMYILCKRQRVPYVSFSQAMNLGLKQGPPWLRCLAPIAVPFVDGFLAFYHFGICCVYVVFIAESIKQLVDEYLVVWDVRIHMCIIIVPLLLIYSIKNLKLLAPFSSAANLLLLVGFGIILYYIFEELPPLSERDPFVAAGKLPTFFGTVLFALEAVGVILAIEENMATPKSFVGPCGILNSGMSIVLGLYVLLGFFGYWKYGNESEGSITLNIPQSEIPAQVVKVFFAITTWISYALQGYVTAHILWDKYLAKRFKETRQTFYELIFRAIIVLLTFGCAVAIPDLSVFLSLVGSFCLSILGLIFPVLLQICVQYTEGYGPFRIKLIINLLLLCFGIFGGVVGTYVSILDIIAVYK
Protein B1 has a Km [1] of 1030 ± 180 µM and a Km [2] of 1310 ± 120 µM.

B2: PAT2 (SLC36A2) (Rattus norvegicus; F159I) (protein)
chain: MSVTKSAGSPQVAATVKLDLVSFPESAKKVQSQDPNPVNGSSSESSEKTKGITGFQTLVHLVKGNMGTGILGLPLAVKNAGILMGPLSLLVMGLIACHCMHILVRCAQRFCHRLNKPFMDYGDTVMHGLASSPNTWLQSHAHWGRHAVSFFLIVTQLGICCVYIVFLADNLKQVVEAVNSTTISCHKNETVVLTPTIDSRLYMLAFLPVLGLLVFIRNLRVLTIFSLLANVSMLVSLVIIGQYIIQGIPDPSQLPLVASWKTYPLFFGTAIFSFESIGVVLPLENKMKDARRFPTILSLGMSIITTLYIAIGALGYLRFGDDIKASITLNLPNCWLYQSVKLLYVVGILCTHALQFYVPAEIIIPLAVSQVSKRWALPVDLSIRLALVCVTCMLAILIPRLDLVLSLVGSVSSSALALIIPPLLEVTTYYGEGMSPLTITKDALISILGFMGFVVGTYQALDELIRSGNSLPLSNSTMFIQ
B2 showed a Km [2] of 823 ± 202 µM.
